# Results: patent US20190192675A1 (Merck Sharp & Dohme, published 2019)
# Non-standard residues stand in square brackets, D forms with d. No end group written: not given here. Lys(N3) = [N-]=[N+]=NCCCC[C@H](N)C(=O)O; Aib = CC(C)(N)C(=O)O
# Legend:
# [1] = biological target: human Glucagon receptor (GCGR) (human, UniProt P47871 26-477); assay: cell-based or functional assay
# [2] = biological target: human GLP-1 receptor (GLP1R) (human, UniProt P43220 24-463); assay: cell-based or functional assay
# Sequence of human GLP-1 receptor (GLP1R) (P43220 24-463): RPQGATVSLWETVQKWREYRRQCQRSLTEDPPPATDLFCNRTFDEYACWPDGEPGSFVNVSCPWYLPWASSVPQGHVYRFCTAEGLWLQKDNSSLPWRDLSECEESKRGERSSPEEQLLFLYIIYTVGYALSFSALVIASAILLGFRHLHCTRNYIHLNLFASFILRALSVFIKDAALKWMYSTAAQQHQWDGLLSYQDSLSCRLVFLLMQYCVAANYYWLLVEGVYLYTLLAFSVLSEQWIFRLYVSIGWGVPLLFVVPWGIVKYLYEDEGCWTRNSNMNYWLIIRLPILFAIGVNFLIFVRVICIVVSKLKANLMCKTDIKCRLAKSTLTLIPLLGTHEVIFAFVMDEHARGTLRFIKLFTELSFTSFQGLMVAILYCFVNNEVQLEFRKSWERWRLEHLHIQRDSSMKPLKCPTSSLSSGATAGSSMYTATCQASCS
Binder,"hGCGR_EC50 (nM), cAMP activity assay [1]","hGLP1R EC50 (nM), cAMP activity assay [2]"
HXQGTFTSDKSKYLDERAAQDFVXWLLDT (D-Ser (s) at 2; Nle(εN3) at 24; C-terminal amide) [PEP88],0.093 nM,0.09 nM
HXQGTFTSDKSKYLDERAAQDFVXWLLDT (D-Ser (s) at 2; K(γEγEC16) at 10; Nle(εN3) at 24; C-terminal amide) [PEP87],0.019 nM,–
H[Aib]QGTFTSDKSKYLD[Aib]RAAQDFVQWLMNTKQ[Lys(N3)]-NH2 [PEP89],3.9 nM,0.044 nM
